Data: patent US12258396 (MEDICOVESTOR, dated 2025)
Values belong to the binder of their own block, whether it stands above or below them.

Assays:
[1] = target: T1, human FRalpha expressed on cells (transfected HEK293 cells; SKOV3 human ovarian cancer cells) (human, UniProt P15328 25-234); assay: flow cytometry on SKOV3 human ovarian cancer cells that express FRalpha
T1 construct: whole, on cells; also called human folate receptor alpha
Experimental: (§1) The affinity of each antibody was then assessed by flow cytometry. Briefly, HEK293 cells transfected to express FRalpha were washed with fluorescence-activated cell sorting (FACS) buffer, to which the IgGs were added at varying concentrations and incubated at 4 degrees Celsius for 60 minutes. The cells were then centrifuged and washed twice in FACS buffer. A phycoerythrin-labelled anti-human IgG, Fcgamma antibody (109-115-098; Jackson ImmunoResearch, Pennsylvania, United States) was then added to the cells at a 1:200 dilution and incubated at 4 degrees Celsius for 30 minutes. The cells were then washed, resuspended in FACS buffer, and counted by flow cytometry. Results are depicted in FIG. 4.
The flow cytometry experiment of the preceding paragraph was repeated with a human ovarian cancer cell line that expresses FRalpha, SKOV3. Results are depicted in FIGS. 5A and 5B. […] The antibody according to SEQ ID NO: 3-12 was then designated the lead antibody for further development.

[2] = target: T2, fusion protein containing the extracellular domain of human FRalpha and a polyhistidine tag (human, UniProt P15328 25-233); assay: ELISA, plate coated with human FRalpha ECD-His, anti-human-IgG-Fc-HRP detection
T2 construct: extracellular domain; Coated on ELISA plates; also called human FRalpha extracellular domain; not shown: polyhistidine tag
T2 sequence (P15328 25-233 limits assumed): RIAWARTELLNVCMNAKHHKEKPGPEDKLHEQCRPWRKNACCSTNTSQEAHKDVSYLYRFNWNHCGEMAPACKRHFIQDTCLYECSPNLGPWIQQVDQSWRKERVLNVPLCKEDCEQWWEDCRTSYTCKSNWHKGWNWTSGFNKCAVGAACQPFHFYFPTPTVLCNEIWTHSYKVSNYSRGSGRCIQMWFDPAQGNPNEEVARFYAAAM
Experimental: The affinity of each IgG1 for FRalpha was confirmed by ELISA. Briefly, a fusion protein containing the extracellular domain of human FRalpha and a polyhistidine tag was used to coat ELISA plates, which were washed three times with phosphate-buffered saline (PBS) containing 0.1 percent polysorbate 20 (PBST), then blocked with PBS containing 5 percent powdered milk (PBSM), and then washed three more times with PBST. Wells were then incubated with antibodies at varying concentrations for 60 minutes at room temperature in 1 percent PBSM. Wells were then washed three times with PBST, after which the secondary, horse-radish-peroxidase-conjugated antibody anti-human-IgG-Fc-HRP (ab97225, Abcam, United Kingdom) was added at a 1:8000 dilution in 1 percent PBSM for 50 minutes at room temperature. The wells were then washed six times with PBST, after which 3,3',5,5"-tetramethylbenzidine (TMB) was added. The reaction was stopped with 2 molar sulfuric acid, and the TMB diamine product was quantified at 450 nanometers in a plate reader. Results are depicted in FIG. 2.

[3] = target: T3, fusion protein containing the extracellular domain of cynomolgus FRalpha and a polyhistidine tag (cynomolgus, UniProt A0A2K5U044 25-233); assay: ELISA, plate coated with cynomolgus FRalpha ECD-His, anti-human-IgG-Fc-HRP detection
T3 construct: extracellular domain; Coated on ELISA plates; also called cynomolgus FRalpha extracellular domain; not shown: polyhistidine tag
T3 sequence (A0A2K5U044 entry or part of it): as the sequence (P15328 25-233 limits assumed) above, with I2T, W4R, R37K, A146P, H171Y counted along it

[4] = target: T1, human FRalpha expressed on cells …; assay: flow cytometry on HEK293 cells transfected to express FRalpha, PE anti-human IgG Fcgamma detection
Experimental: as §1

T1 sequence (P15328 25-234): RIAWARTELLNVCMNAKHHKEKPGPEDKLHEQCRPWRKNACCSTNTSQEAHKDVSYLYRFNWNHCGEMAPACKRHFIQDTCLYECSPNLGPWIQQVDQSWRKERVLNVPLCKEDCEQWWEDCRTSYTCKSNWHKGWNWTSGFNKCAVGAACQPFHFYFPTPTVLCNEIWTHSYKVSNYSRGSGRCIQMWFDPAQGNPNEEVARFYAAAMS

EC50 [1]: < 1 nM | EC50 [2]: ~0.05 nM | EC50 [3]: ~0.06 nM | EC50 [4]: ~5 nM
B1: lead fully-human anti-FRalpha IgG1 antibody (antibody according to SEQ ID NO: 3-12) (antibody, V domains shown)
VH: EVQLLESGGGLVKPGGSLRLSCAASGFTFSSYTMNWVRQAPGKGLEWVSSISSGGGYIYYADSVKDRFTISRDNAKNSLYLQMNSLRAEDTAVYYCAKGDTIMIISAWGQGTTVTVSS
VL: DIQLTQSPSTLSASVGDRVTITCRASQSISSWLAWHQQKPGKAPKLLIYAASSLQNGVPSRFSGSGFGTDFTLTISSLQPEDFATYYCQQASSFPLTFGGGTKVEIKR
notes: Fully human IgG1/kappa; also called lead antibody; lead anti-FRalpha antibody

EC50 [2]: ~0.12 nM | EC50 [3]: ~0.16 nM | EC50 [4]: ~4 nM
B2: Mirvetuximab (antibody, V domains shown)
VH: QVQLVQSGAEVVKPGASVKISCKASGYTFTGYFMNWVKQSPGQSLEWIGRIHPYDGDTFYNQKFQGKATLTVDKSSNTAHMELLSLTSEDFAVYYCTRYDGSRAMDYWGQGTTVTVSS
VL: DIVLTQSPLSLAVSLGQPAIISCKASQSVSFAGTSLMHWYHQKPGQQPRLLIYRASNLEAGVPDRFSGSGSKTDFTLTISPVEAEDAATYYCQQSREYPYTFGGGTKLEIK
